What was measured:
M. salvinii lipoxygenase = M. salvinii lipoxygenase (Nakataea oryzae, UniProt P0CT92); details: per substrate
soybean lipoxygenase = molecular target: T1, soybean lipoxygenase (Glycine max, UniProt P08170); assay: Substrate kinetic parameters with soybean lipoxygenase (comparison); format: biochemical
T1 sequence (P08170 1-839): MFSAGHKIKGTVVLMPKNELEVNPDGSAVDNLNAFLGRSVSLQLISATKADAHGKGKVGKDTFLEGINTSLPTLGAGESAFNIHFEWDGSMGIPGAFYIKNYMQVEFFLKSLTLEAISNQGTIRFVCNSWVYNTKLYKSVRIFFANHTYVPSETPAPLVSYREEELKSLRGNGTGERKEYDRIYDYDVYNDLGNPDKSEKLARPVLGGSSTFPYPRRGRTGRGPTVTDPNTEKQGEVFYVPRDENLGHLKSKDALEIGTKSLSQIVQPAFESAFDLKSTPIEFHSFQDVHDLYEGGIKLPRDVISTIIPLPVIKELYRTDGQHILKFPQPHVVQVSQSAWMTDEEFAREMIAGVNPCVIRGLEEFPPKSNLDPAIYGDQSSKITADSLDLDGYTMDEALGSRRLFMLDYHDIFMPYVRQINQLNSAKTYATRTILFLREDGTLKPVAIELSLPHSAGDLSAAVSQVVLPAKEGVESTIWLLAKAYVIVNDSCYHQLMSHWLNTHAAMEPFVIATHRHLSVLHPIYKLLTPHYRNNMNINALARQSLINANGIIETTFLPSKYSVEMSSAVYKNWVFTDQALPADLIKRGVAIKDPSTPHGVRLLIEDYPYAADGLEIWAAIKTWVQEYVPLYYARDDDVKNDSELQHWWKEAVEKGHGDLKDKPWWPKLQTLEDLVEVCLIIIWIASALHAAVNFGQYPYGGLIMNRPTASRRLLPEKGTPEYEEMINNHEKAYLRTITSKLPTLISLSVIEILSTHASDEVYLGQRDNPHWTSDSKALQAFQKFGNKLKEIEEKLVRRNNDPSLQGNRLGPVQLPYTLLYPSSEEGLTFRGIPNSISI
Protocol: Soybean lipoxygenase (type I-B) (cat.# L7315) and astaxanthin (cat.# A-9335) was supplied by Sigma. b-carotene (cat.# 031-05533) were supplied by Wako. For comparison, one substrate was also tested with soybean lipoxygenase.

[1] = tested on: CCCCC/C=C\C/C=C\CCCCCCCC(=O)Cl; assay: purified protein, by the assay type
[2] = tested on: CCCCC/C=C\C/C=C\CCCCCCCCO; assay: purified protein, by the assay type
[3] = tested on: CCCCC/C=C\C/C=C\CCCCCCCCOC(C)=O; assay: purified protein, by the assay type
[4] = tested on: CCCCC/C=C\C/C=C\C/C=C\C/C=C\CCCC(=O)O; assay: purified protein, by the assay type
[5] = tested on: CCCCC/C=C\C/C=C\CCCCCCCC(=O)OC; assay: purified protein, by the assay type
[6] = Bleaching assay, astaxanthin pigment solution; format: biochemical
Protocol: (§1) Bleaching effect by lipoxygenase was examined spectrophotometrically at 25° C. by following the absorbance at 470 nm. The pigment solution was prepared as follows. 150 ul of stock pigment solution (1 mg each pigment in 1 ml chloroform) was evaporated to be dry. Then 30 ml of the buffer (50 mM KH2PO4NaHPO4, pH 7.0) with 0.3% of Tween 20 was added slowly and the pigment was dissolved.
(§2) The bleaching effect of M. salvinii LOX was examined. Soybean L1 was included for comparison. β-carotene and astaxanthin were used as pigments.

[7] = Bleaching assay, β-carotene pigment solution; format: biochemical
Protocol: as §1, §2

Sequence of M. salvinii lipoxygenase (P0CT92 18-617): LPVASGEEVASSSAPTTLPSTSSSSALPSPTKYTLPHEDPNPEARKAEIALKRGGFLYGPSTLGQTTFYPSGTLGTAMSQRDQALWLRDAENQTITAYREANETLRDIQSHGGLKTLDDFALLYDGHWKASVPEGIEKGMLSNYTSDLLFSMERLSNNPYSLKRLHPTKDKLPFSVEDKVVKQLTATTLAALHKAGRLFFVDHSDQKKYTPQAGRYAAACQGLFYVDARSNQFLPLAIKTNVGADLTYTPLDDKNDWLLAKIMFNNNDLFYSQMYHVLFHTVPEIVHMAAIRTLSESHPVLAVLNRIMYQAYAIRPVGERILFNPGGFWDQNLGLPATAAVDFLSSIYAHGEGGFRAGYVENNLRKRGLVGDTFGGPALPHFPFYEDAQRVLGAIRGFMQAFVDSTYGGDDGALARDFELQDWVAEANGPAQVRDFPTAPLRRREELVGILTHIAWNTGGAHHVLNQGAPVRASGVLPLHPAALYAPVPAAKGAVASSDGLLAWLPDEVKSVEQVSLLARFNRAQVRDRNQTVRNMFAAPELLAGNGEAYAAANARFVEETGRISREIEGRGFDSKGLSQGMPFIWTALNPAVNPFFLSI

Molecule: CCCCC/C=C\C/C=C\CCCCCCCC(=O)O [Na linoleate]
- Km (M. salvinii lipoxygenase): 0.41 µM
- Vmax (M. salvinii lipoxygenase): 2.07 µmol/min/mg

Molecule: CCCCC/C=C/C/C=C/CCCCCCCC(=O)O [Linoelaidic acid]
- KM (M. salvinii lipoxygenase): No activity
- Vmax (M. salvinii lipoxygenase): No activity
- Vmax/KM (M. salvinii lipoxygenase): No activity

Molecule: CCCCC/C=C\C/C=C\CCCCCCCC(=O)O [Linoleic acid]
- Km (M. salvinii lipoxygenase): 1 µM
- Vmax (M. salvinii lipoxygenase): 2.63 µmol/min/mg
- Km (soybean lipoxygenase): 230 µM
- Vmax (soybean lipoxygenase): 12.3 µmol/min/mg

Molecule: M. salvinii lipoxygenase (Nakataea oryzae)
- Km [1]: 12 µM
- Vmax [1]: 0.97 µmol/min/mg
- Vmax/Km [1]: 80000 µL/min/mg
- Km [2]: 8 µM
- Vmax [2]: 1.4 µmol/min/mg
- Vmax/Km [2]: 175000 µL/min/mg
- Km [3]: 9 µM
- Vmax [3]: 0.77 µmol/min/mg
- Vmax/Km [3]: 85000 µL/min/mg
- Km [4]: 5.5 µM
- Vmax [4]: 2.44 µmol/min/mg
- Vmax/Km [4]: 446000 µL/min/mg
- Km [5]: 30 µM
- Vmax [5]: 0.82 µmol/min/mg
- Vmax/Km [5]: 26000 µL/min/mg

Molecule: CC/C=C\C/C=C\C/C=C\CCCCCCCC(=O)O [Linolenic acid]
- Km (M. salvinii lipoxygenase): 0.4 µM

B1: Soybean L1: Soybean lipoxygenase (type I-B) (cat.# L7315) supplied by Sigma, included for comparison (protein, UniProt P08170 1-839, looked up)
Seed linoleate …: T1 sequence (P08170 1-839)
- ΔA470/min ([6]; Astaxanthin): 0.0021
- LOX activity ([6]; Astaxanthin experiment): 2.018
- absorbance at 470 nm ([6]; Astaxanthin, time 0 min, 25° C., pH 7.0): 0.5026
- absorbance at 470 nm ([6]; Astaxanthin, time 0.4 min): 0.5029
- absorbance at 470 nm ([6]; Astaxanthin, time 0.8 min): 0.505
- absorbance at 470 nm ([6]; Astaxanthin, time 1 min): 0.5025
- absorbance at 470 nm ([6]; Astaxanthin, time 1.4 min): 0.5013
- absorbance at 470 nm ([6]; Astaxanthin, time 1.8 min): 0.4993
- absorbance at 470 nm ([6]; Astaxanthin, time 2.2 min): 0.4985
- absorbance at 470 nm ([6]; Astaxanthin, time 2.6 min): 0.4986
- absorbance at 470 nm ([6]; Astaxanthin, time 3 min): 0.498
- ΔA470/min ([7]; β-carotene): 0.00005
- bleaching effect (in words) ([7]; β-carotene and astaxanthin pigment solutions): little effect on bleaching
- LOX activity ([7]; β-carotene experiment): 1.962
- absorbance at 470 nm ([7]; β-carotene, time 0 min, 25° C., pH 7.0): 0.3575
- absorbance at 470 nm ([7]; β-carotene, time 0.4 min): 0.3616
- absorbance at 470 nm ([7]; β-carotene, time 0.8 min): 0.3601
- absorbance at 470 nm ([7]; β-carotene, time 1.2 min): 0.362
- absorbance at 470 nm ([7]; β-carotene, time 1.4 min): 0.3602
- absorbance at 470 nm ([7]; β-carotene, time 1.8 min): 0.3602
- absorbance at 470 nm ([7]; β-carotene, time 2.2 min): 0.3595
- absorbance at 470 nm ([7]; β-carotene, time 2.6 min): 0.3595
- absorbance at 470 nm ([7]; β-carotene, time 3 min): 0.3594
